Measured values reported in the RNAGym collection of RNA variant scans (doi:10.1073/pnas.2313332121).
Variants at the floor of the assay were thinned out.

B1: TPR 5TU (parent)
chain: GGAUCUUCUCGAUCUAACAAAAAAGACAAAUCUGCCACAAAGCUUGAGAGCAUCUUCGGAUGCAGAGGCGGCAGCCUUCGGUGGCGCGAUAGCGCCAACGUUCUCAACUAUGACACGCAAAACGCGUGCUCCGUUGAAUGGAGUUUAUCAUG

Variants of: B1
Test: polymerase ribozyme fitness, log enrichment relative to wild type (log ratio); higher = more active; in vitro selection for triplet polymerase activity
In short: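 Mutant libraries were PCR-built and transcribed for each subunit of a heterodimeric triplet polymerase ribozyme and selected for one round in triplicate at −7 °C, frozen, before gel excision of extended constructs and streptavidin-bead capture. Input and output libraries were Illumina-sequenced, keeping genotypes with ≥10 input reads and ≥1 read per output. Fitness is a logarithmic ratio of genotype to wild-type enrichment, in base 2, using inverse-variance-weighted replicate averages.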

Variant | polymerase ribozyme fitness (log ratio)
GGAUCUUCUCGAUCUAACAAAAAAGACAAAUCUGCCACAAAGCUAGAGAGCAUCUUCGGAUGCAGAGGCGGCUGCCUUCGGUAGCGCGAUAGCGCCAACGUUCUCAACUAUGACACGCAAAACGCGUUCUCCGUUGAAUGGAGUUUAUCAAG [U45A A73U G83A G128U U151A] | ≤ -4.2
GGAUCUUCUCGAUCUAACAAAAAAGACAAAUCUGCCACAAAGCUUGAGAGCAUCUUCGGAUGCAGAGGCGGCAGCCUUCGGUGGCGCGAUAGCGCCAACGUUCUCAACUAUGACACGCAAAACGCAUGGUCCGUUGAAUGGAGUUUAUCAUG [G126A C129G] | -3.97
GGAUCUUCUCGAUCUAACAGAAAAGACAAAUCUGCCACAAAGCUUGAGAGCAUUUUCGGUUGCAGAGGCGGCAGCCUUCGGUGGAGCGAUAGCGCCAACGUUCUCAACUAUGACACGCAAAACGCGUGCUCCGUUGAAUGGAGUUUAUCAUG [A20G C54U A60U C85A] | -3.42
GGAUCUUCUCGAUCUAACAAAAAAGACAAAUCUGCCACAAAGCUUGAGAGGAUCUUUGGAUGCAGACGCGGCAGCCUUCGGUGGCGGGAUGGCGCCAACGUUCUCAACUAUGACACGCAAAACGCGUGCUCCGUUGAAUGGAGUUUAUCAUG [C51G C57U G67C C87G A91G] | ≤ -4.2
GGAGCUUCCCGAUCUAACAAAAUAGACAAAUCUGCCACAAAGAUUGAGAGCAUCUGCGGAUGCAGAGGCGGCAGCCUUCGGUGGCGUGAUAGCGCCAACGUUCUCAACUAGGACACGCAAAACGCGUGCUCUGUUGAAUGGAGUUUAUCAUG [U4G U9C A23U C43A U56G C87U U111G C132U] | ≤ -4.2
GGAUCUUCUCGAUCUAACAAAAAAGACAAAUCUGCCACAAAGCUCGAGAGCAUCUUCGGAUGCAGAGGCGGCAGCCUUCCGUGGUGGGAUAACGCCAACGUUCUCAACUAUGACACGCAAAACGCGUGCUCCGUUGAAUGGAGGUUAUCAUG [U45C G80C C85U C87G G92A U144G] | ≤ -4.2
GGAUCUUCUCGAUCUAACAAAAAAGACAAAUCUGCCACAAAGCUUGAGAGCACCUUCGGAUGCAGAGGCGGCAACGUUCGGUGGCGCGAUAGCGCUAACGUUCUCAACUUUGACACGCAAAACGCGUGCUCCGUUGAAUGGAGUUUAUCAUG [U53C G74A C76G C96U A110U] | ≤ -4.2
GGAUCUUCUCGAUCUAACAACAAAGACAAAUCUGCCACAAAGCUUGAGAGCAUCUUCGGAUGCAGAGGCGGCAGCCUUCGGUGACGCGAUAGCGACAACGUUCCCAACUAUGACACGCAAAACGCGUGCUCCGUUGAAUGGAGUUUAUCAUG [A21C G84A C95A U104C] | -0.91
GGAUCUUCUCGAUCUAACAAAAAAGACAAAUCUGCCAUAAAGCUUGAGAGCAUCUUCGGAUGCAGAGGCGGCAGCCUUCGGUGGCGUGAUAGCGUCAACGUUCUCAACUAUGACACGCAAAACGCGUGCUCCGUUGAAUGGAGAUUAUCAUG [C38U C87U C95U U144A] | -1.21
GGAUCUUCUCGAUCUAACAAAAAAGACAAAUCUGCCACAAAGCUUGAGAGAAUCUUCGUAUGCAGAGGCGGCAGCCUUCGGUGUCGCGAUAGCGCCAACGUUCUCAACUAUGACACGCAAAACGCGUGCUCCGUUGAAUGGAGUUUAUCAUG [C51A G59U G84U] | ≤ -4.2
GGAUCUUCUCGAUCUACCAAAAUAGACAAAUCUGCCACAAAGCUUGAGAGCAUCUUCGGAUGCAGAGGCGGCAGCCUUCGGUGGCGCGAUAGCGCCAACGUUCCCAACUAUGACACGCAAAACGCGUGCUCCGUUGAAUGGAGUUUAUCAUG [A17C A23U U104C] | ≤ -4.2
GGAUCUUCUCGAUCUAACAAAAAAGACAAAUCUGACACAAAGCUUGAGAGCAUCUUCGGAUGCAGAGGCGGCAGCAUUCGGUGGCGCGAUAGUGCCAACGUUCUCAACUAUGUCACGCAAAACGCGUGCGCCGUUGAAUGGAGUUUGUCAUG [C35A C76A C93U A113U U130G A147G] | ≤ -4.2
GGAUCUUCUCGAUCUAACAAAAAAGACAAAUCUGCCACAAAGCUUGAGAGGAUCUUCGGAUGCAGAGGCGGCAGCCUUCGGUGACGCGAUAGCGGCAACGUUCUCAACUAUGACACGCGAAACGCGUGCUCCGUUGAAUGGAGUUUAUCAUG [C51G G84A C95G A119G] | -2.85
GGAUCUUCUCCUUAUAACAAAAAAGACGAAUCUGCCACAAAGCUUGAGAGCCUCUUCGGAUCCAGAGGCGGCAGCCUACGGUGGCGCGAUAGCGCCAACGUUCUCAACUAUCACACGCAAAACGCGUGCUCCGUUGAAUGGAGUUUAUCAUG [G11C A12U C14A A28G A52C G62C U78A G112C] | ≤ -4.2
GGAUCUUCUCGAUCUAACAAAAAAGACAAAUCUGCCACAAAGCUUGCGAGCAACUUCGGAUGCAGAGGCGGCAGCCUUCGAUGGCGCGAUAGCGCCAACGUUCGCAACUAUGACACGCAAAACGCGUGCUCCGUUGAAUGGAGUUUAUCAUG [A47C U53A G81A U104G] | -1.12
GGGACUUCUCGAUCUAACAAAAAAGACAAAUCUGCCACAAAGCUUGAGAGCACCUUCGUAAGCAGAGGCGCCAGCCUUCGGUGGAGCGAUAGCGCCAACGUUCUCAACUAUGACACGCAAAACGCGUGCUCCGUUGAAUGGAGUUUAUCAUG [A3G U4A U53C G59U U61A G71C C85A] | ≤ -4.2
GGAUCUCCUCGAUCUAAGAAAAAAGACAAAUCUGCCACAAAGCUUGAGAGCAUCUUCGGAUGCAGAGGCGGCAGCCUUCGGUGGCACGAUAGCGCCAACGUUCUCAACUAUGACACGCAAAACGCGUGCUCCGUUGAAUGGAGUUUAACAUG [U7C C18G G86A U148A] | -4.2
GGAUCUUCUCGAUCUAACAAAAAAGACAAAUCUGCCACAAAACUUGAGAGCAUCUUCGAAUGCAGAGGCGGCAGCCUUCGGUGGCGCGAUAGCGCCAACGUGCUCAACUAUGACACGCAAAACGCGUGCUCCGUUGAAUGGAGUUUAUCAUG [G42A G59A U102G] | ≤ -4.2
GGAUCUUCUCGAUCUAACUAAAAAGACAAAUCUGCCACAAAGCUUGAGAGCAUCUUCGGAUGCAGAGGCGGCAGCCUUCGAUGGCGCGAUAGCGCCAACGUUCUCAACUAUGACACGCAAAACGCGUGCUCCGUUGAAUGGAGUUUAUCAUG [A19U G81A] | -0.839
